This passage reports solubility results from patent US20130296242A1, “MEDICATION AND THERAPY TREATING OF CHOROIDAL NEOVASCULARIZATION” (NATIONAL SUN YAT-SEN UNIVERSITY, priority 2012, published 2013).

No end group written: not given here.

The series is described as follows: Solubility of VS fragments in water. The format is physicochemical. As for the experimental part: Accordingly, the VS48 is apt to be dissolved in a solvent directly without any assistance of solubilizers (such as a tag protein, TRX) and with no sediments being produced. The solvent can be any solutions comprising similar osmotic pressure to body's liquid of organisms (such as plasma), for example 0.85-0.9% saline. Preferably, the solvent is 0.85-0.90% saline, which is dramatically stable as store and is capable of being stored for one year under 4° C.

The sequence “GPDICGPGTKKVHVIFNYKGKNVLINKDIRCKDDEFTHLYTLIVRPDN (cysteines drawn unpaired) [VS48]” returned a solubility of 1000 µg/mL.

A word on the solubility: it is the concentration that dissolves in the medium under given conditions. A low value points to little dissolved substance.
